The record followed here is patent US20230399393A1, “METHODS TO EXTEND HEALTH-SPAN AND TREAT AGE-RELATED DISEASES” (National University of Singapore, priority 2020, published 2023).

Assay [1] deals with C57Bl/6J mice. The assay is described as follows: Metabolic function: serum/liver triglyceride, serum cholesterol, serum hydroxybutyrate. Format: in vivo, mouse. The procedure: C57Bl/6J mice were randomised to receive either X203 or IgG control antibody at a dose of 40 mg/kg via IP injection every 3 weeks from age 55 weeks to age 110 weeks, and serum triglyceride, liver triglyceride, serum cholesterol and serum p-hydroxybutyrate levels were measured using Triglyceride Assay Kit (ab65336, Abcam), Cholesterol Assay Kit (ab65390, Abcam), and Beta-Hydroxybutyrate Colorimetric Assay Kit (700190; Cayman chemicals), in accordance with the manufacturer's instructions. Levels of serum triglyceride, liver triglyceride, serum cholesterol and serum p-hydroxybutyrate were also analysed in 12 week-old male and female C57Bl/6J mice, in order to determine baseline levels. Data were analysed by 2-way ANOVA.

Another assay deals with AML12 cells. Put plainly: In vitro model of senescence induction, qRT-PCR at day 7. The assay is classed as cell-based, mouse. As to conditions: 2 ug/ml from day 2, H2O2 0.75 mM, vs isotype-matched control IgG. On the procedure:
Senescent hepatic mouse cells were generated from cells of the mouse hepatocyte cell line AML12 as described in Tripathi et al., Star Protocols (2020) 1:100064 (hereby incorporated by reference in its entirety).
Briefly, AML12 cells were grown to 50% confluency and senescence was induced by treating the cells with a sub-lethal concentration of H2O2 (0.75 mM) for 1 h, followed by 23 h recovery per day, for a total of 7 days (as described in Tripathi et al., Star Protocols (2020) 1:100064). From day 2 onwards, 2 ug/ml of X209/X203 or isotype-matched control IgG was added to the cultures during the 23h recovery period.
Total RNA was isolated at day 7, and levels of p21 (Cdkn1a), […], Il11 and Tgfb gene expression were evaluated by qRT-PCR. Briefly, total RNA was extracted from cell lysates using Trizol (Invitrogen) followed by RNeasy column (Qiagen) purification. cDNAs were synthesized with iScript™ cDNA synthesis kit (Bio-Rad) according to manufacturer's instructions. Gene expression analysis was performed with either TaqMan (Applied Biosystems) or fast SYBR green (Qiagen) using the StepOnePlus Real-Time PCT System (Applied Biosystems) over 40 cycles. Expression data for p21 (Cdkn1a), Il1b, Il11 and Tgfb were normalised to Gapdh expression, and fold change was calculated using the 2^−ΔΔCt method.
In general terms: Quantitative PCR measures a nucleic acid by following its amplification.

In assay [2] the test system is C57Bl/6J mice. The assay is described as follows: Serum IL-6 levels of old mice (ELISA). The assay is classed as in vivo, mouse. As to conditions: old (110 week-old) male and female mice; vs IgG isotype control. The procedure: FIG. 51. A neutralizing IL-11 antibody reduces the levels of IL-6 protein in the serum of old mice. Graphs showing the effects of treatment with anti-IL11 (X203) or IgG isotype control on serum IL-6 levels levels of old (110 week-old) male and female mice. Dotted lines indicate the mean serum IL-6 levels of 12 week-old control male (0.159 μg/ml) and female (0.236 μg/ml) mice. Data were analyzed by 2-way ANOVA.
IL-6 is strongly linked with ageing (Maggio et al. 2006, J Gerontol A Biol Sci Med Sci. 61(6): 575-584; Ershler and Keller 2000, Annual Review of Medicine 51: 245-70).
Male and female C57Bl/6J mice aged 46 weeks were purchased from the Jackson Laboratory. Mice were randomised on a 1:1 basis to receive either 40 mg/kg of X203 or an isotype control IgG antibody (11E10), every 3 weeks (IP), starting from 55 weeks of age. Mice were sacrificed at 110 weeks of age for blood and tissues collection. 12 weeks old male and female C57Bl/6J mice that were used as control were purchased from Invivos (Singapore).
The levels of IL6 in mouse serum were quantified using Mouse IL-6 Quantikine ELISA Kit (M6000B; R&D Systems).
On the technique in general: ELISA stands for enzyme-linked immunosorbent assay.

Assay [3] relates to C57Bl/6J mice. Put plainly: Renal function: blood urea nitrogen (BUN) and creatinine. Format: in vivo, mouse. The procedure:
C57Bl/6J mice are randomised to receive either X203 or IgG control antibody at a dose of 40 mg/kg via IP injection every 3 weeks from age 55 weeks to age 110 weeks, and renal function was evaluated by analysis of serum levels of blood urea nitrogen (BUN) and creatinine using the Urea Assay Kit (ab83362, Abcam) and Creatinine Assay Kit (ab65340, Abcam) in accordance with the manufacturer's instructions.
Levels of BUN and serum creatinine was also analysed in 12 week-old male and female C57Bl/6J mice, in order to determine baseline levels. Data were analysed by 2-way ANOVA.

Assay [4] deals with C57Bl/6J mice. Put plainly: Grip strength using a grip strength meter. As to conditions: at 110 weeks; vs IgG control antibody. The assay is classed as in vivo, mouse. The procedure: (§1) C57Bl/6J mice are randomised to receive either X203 or IgG control antibody at a dose of 40m/kg via IP injection every 3 weeks from age 55 weeks to age 110 weeks.
At 110 weeks, mice are analysed for grip strength using a grip strength meter. Reduced grip strength is a robust marker of ageing-associated frailty in mice (see Fischer et al., Aging (2016) 8: 2370-2391, hereby incorporated by reference in its entirety).
Mice grip a wire mesh attached to the meter with both forelimbs, and are then gently pulled by the tail in a horizontal plane parallel to the base plate of the meter. Grip strength is recorded as the maximum force registered.

The subject of assay [5] is C57Bl/6J mice. Put plainly: Analysis of organ fibrosis (hydroxyproline assay, Masson's trichrome). The assay is classed as in vivo, mouse. As to conditions: at 110 weeks; heart, lung, kidney, skeletal muscle; vs IgG control antibody. On the procedure:
as §1
At 110 weeks, global tissue collagen content is evaluated in the heart, lung, kidney and skeletal muscle tissues by hydroxyproline assay. Tissue sections from these tissues are also subjected to Masson's trichrome staining and analysed by light microscopy (blinded to treatment group).

Assay [6] relates to C57Bl/6J mice. Put plainly: Analysis of geropathological lesions in tissue sections. Format: in vivo, mouse. The conditions noted are these: at 110 weeks; heart, lung, liver, spleen, kidney, skeletal muscle; vs IgG control antibody. The procedure:
as §1
At 110 weeks, mice are euthanized, sections are prepared from heart, lung, liver, spleen, kidney and skeletal muscle tissues, subjected to hematoxylin and eosin or Masson's trichrome staining and analysed by light microscopy. Tissue sections are evaluated for ageing-associated lesions as described in Snider et al., Geroscience (2019) 40: 97-103 and Snyder et al., Geroscience (2019) 41: 455-465 (both hereby incorporated by reference in their entirety). Analysis is performed by a veterinary pathologist blinded to treatment group.

[7] abbreviates: treatment from age 55 to 110 weeks.

B1: X203: mouse anti-mouse IL-11 IgG antagonist antibody; VH SEQ ID NO:22, VL SEQ ID NO:23 (antibody, V domains shown)
VH: EVQLQQSGPELVKPGASVKIPCKASGYTFTDYNMDWVKQSHGKSLEWIGDINPHNGGPIYNQKFTGKATLTVDKSSSTAYMELRSLTSEDTAVYYCARGELGHWYFDVWGTGTTVTVSS
VL: DIVLTQSPASLAVSLGQRATISCRASKSVSTSGYSYIHWYQQKPGQPPKLLIYLASNLDSGVPARFSGSGSGTDFTLNIHPVEEEDAATYYCQHSRDLPPTFGGGTKLEIK
Take B1: the “reduction in serum triglyceride levels relative to IgG control” value is listed as 47% with C57Bl/6J mice [1] (female mice, baseline 12 week old female 37 mg/dl) and 65% in the assay on C57Bl/6J mice [1] (male mice, baseline 12 week old male 54 mg/dl). For the same molecule, the “reduction in serum cholesterol levels relative to IgG control” value is reported as 51% in the assay with C57Bl/6J mice [1] (female mice, baseline 12 week old female 90 mg/dl) and 45% in the assay with C57Bl/6J mice [1] (male mice, baseline 12 week old male 149 mg/dl). The “reduction in liver triglyceride levels relative to IgG control” value in the assay with C57Bl/6J mice [1] (female mice, baseline 12 week old female 130 mg/g) is 54%; in the assay on C57Bl/6J mice [1] (male mice, baseline 12 week old male 165 mg/g), 71%. Also, the “aging-associated hypertriglyceridemia, steatosis (liver fat accumulation) and hypercholesterolemia” value in the assay with C57Bl/6J mice [1] (setting [7]) is listed as “reduce”. In the assay with C57Bl/6J mice [1] (setting [7]), the “levels of circulating β-hydroxybutyrate” value is reported as “increase”. In the assay with AML12 cells, the “gene expression of Il11” value is on record as “trended towards a reduced level”. Moreover, the “gene expression of Tgfb” value in the assay on AML12 cells was “significantly reduce”. Also, in the assay on C57Bl/6J mice [2], the “levels of IL-6 protein in the serum” value is reported as “significantly reduces”. The “reduction in creatinine levels relative to IgG control” value was found to be 43% with C57Bl/6J mice [3] (female mice, baseline 12 week old female 0.77 mg/dl) and 60% in the assay on C57Bl/6J mice [3] (male mice, baseline 12 week old male 0.92 mg/dl). In addition, the “reduction in BUN levels relative to IgG control” value is reported as 42% with C57Bl/6J mice [3] (female mice, baseline mean BUN of 12 week old female mice 31.8 mg/dl) and 79% with C57Bl/6J mice [3] (male mice, baseline mean BUN of 12 week old male mice 51.3 mg/dl). For the same molecule, the renal function result in the assay with C57Bl/6J mice [3] (vs IgG control antibody) is “improved”. For the same molecule, the grip strength entry with C57Bl/6J mice [4] is recorded as “greater”. Also, the “fibrosis in the tissues analysed” value with C57Bl/6J mice [5] is “less”. Also, the geropathology lesions entry with C57Bl/6J mice [6] is reported as “fewer, smaller and/or less developed”.
